Reference: US20210371455A1, “METHODS AND COMPOSITIONS COMPRISING REDUCED LEVEL OF HOST CELL PROTEINS” (Regeneron Pharmaceuticals, Inc., priority 2019, published 2021)

B1: SIAE: recombinant sialate O-acetylesterase, host cell protein overexpressed and purified in CHO (protein)
chain: MVSLGSVFGLLLLLIIVRASRSAGIDFRFGSYIDNYMVLQKEPSGAVIWGFGTPGATVTVTLCQGQNTFKKKVTTVKAHSNTWVVVLDPMKPGGPYEVMAKQTFGITNVTLRIHDILFGDVWLCSGQSNMKMTVLQIFNASKELAVAAAYQSVRIFSASLVQAEEELEDLDKVDLSWSRPTAGNLGNGNYTYMSAVCWLFGRYLYDNLQYPIGLVSSSWGGTPIEAWSSKRALKSCGVPNTSNERILQTTRSECKSEGSLCPLGSFTLPPSVTGPATHSVLWNAMIHPLQKMTLKGVIWYQGESNEDLNRDLYSCMFPALIDDWRQTFHDGSQKQTERFFPFGFVQLSSYAETNTSDYRFPEIRWHQTADFGFVPNLKMPNTFMAVAMDLCDLNSPFGSIHPRDKQTVAYRLHLGARALAYGEKNLAFQGPLPKKIELLAHSRLLSLTYDQKIQVHRQDNKSFEISCCSDRLCKWLPVSVNSFSTKTLILGISACRGTVVDVRYAWTTWPCDYKQCAVYHPSNTLPAPPFTAPITYQAPRFRASDSSTQE
B2: human PLBD2: recombinant human putative phospholipase B-like 2 purchased from Origene (protein)
chain: IPAPGGRWARDGQVPPASRSRSVLLDVSAGQLLMVDGRHPDAVAWANLTNAIRETGWAFLELGTSGQYNDSLQAYAAGVVEAAVSEELIYMHWMNTVVNYCGPFEYEVGYCERLKSFLEANLEWMQEEMESNPDSPYWHQVRLTLLQLKGLEDSYEGRVSFPAGKFTIKPLGFLLLQLSGDLEDLELALNKTKIKPSLGSGSCSALIKLLPGQSDLLVAHNTWNNYQHMLRVIKKYWLQFREGPWGDYPLVPGNKLVFSSYPGTIFSCDDFYILGSGLVTLETTIGNKNPALWKYVRPRGCVLEWVRNIVANRLASDGATWADIFKRFNSGTYNNQWMIVDYKAFIPGGPSPGSRVLTILEQIPGMVVVADKTSELYQKTYWASYNIPSFETVFNASGLQALVAQYGDWFSYDGSPRAQIFRRNQSLVQDMDSMVRLMRYNDFLHDPLSLCKACNPQPNGENAISARSDLNPANGSYPFQALRQRSHGGIDVKVTSMSLARILSLLAASGPTWDQVPPFQWSTSPFSGLLHMGQPDLWKFAPVKVSWD
B3: LAL: lysosomal acid lipase encoded by the LIPA gene; recombinant, overexpressed in CHO cell (protein, UniProt P38571 77-399, looked up)
Lysosomal acid …: GPKPVVFLQHGLLADSSNWVTNLANSSLGFILADAGFDVWMGNSRGNTWSRKHKTLSVSQDEFWAFSYDEMAKYDLPASINFILNKTGQEQVYYVGHSQGTTIGFIAFSQIPELAKRIKMFFALGPVASVAFCTSPMAKLGRLPDHLIKDLFGDKEFLPQSAFLKWLGTHVCTHVILKELCGNLCFLLCGFNERNLNMSRVDVYTTHSPAGTSVQNMLHWSQAVKFQKFQAFDWGSSAKNYFHYNQSYPPTYNVKDMLVPTAVWSGGHDWLADVYDVNILLTQITNLVFHESIPEWEHLDFIWGLDAPWRLYNKIINLMRKYQ

Assays:
Format in all cases: biochemical
[1] = PS80 degradation by spiked-in recombinant SIAE (2D-LC-CAD); details: 0.1% PS80, SIAE 50 ppm, 5 days at 45° C.
Procedure: (§1) Two-Dimensional Liquid Chromatography-Charged Aerosol detector (CAD)/Mass Spectrometry (MS) Assay to Detect Polysorbate Degradation. Degradation of PS20 and PS80 in CHO cell-free media or formulated antibody were analyzed by two-dimensional HPLC-CAD/MS system. The details of the setup were previously described by Genentech (Yi Li et al., Characterization and Stability Study of Polysorbate 20 in Therapeutic Monoclonal Antibody Formulation by Multidimensional Ultrahigh-Performance Liquid Chromatography-Charged Aerosol Detection-Mass Spectrometry, 86 ANALYTICAL CHEMISTRY 5150-5157 (2014)). Polysorbates were separated from formulated mAb by using Oasis MAX column (20 mm×2.1 mm, 30 μm, Waters, Milford, Mass., U.S.A.). Initial condition was set at 1% solvent B (0.1% formic acid in acetonitrile) and held for 1 min. It was increased to 20% in 1.5 minutes and dropped back down to 1% in 1.5 minutes. […]
(§2) Peak area of each ester was obtained from the CAD detector and added up to account for intact PS20 or PS80. The remaining percentage of PS20 or PS80 used in this work was calculated by comparing sum of the peak area of monoester eluting between 27.5 min and 33 min at each time point to sum of peak areas at time zero. Relative percent of different order ester or total esters can be calculated similarly.

[2] = PS20 degradation by recombinant SIAE (2D-LC-CAD)
Procedure: as §1, with “(2014)).” for “(2014)). Polysorbates were separated from formulated mAb by using Oasis MAX column (20 mm×2.1 mm, 30 μm, Waters, Milford, Mass., U.S.A.). Initial condition was set at 1% solvent B (0.1% formic acid in acetonitrile) and held for 1 min. It was increased to 20% in 1.5 minutes and dropped back down to 1% in 1.5 minutes.”
The 2D-LC system was set up with Thermo UltiMate 3000 and coupled with Corona Ultra CAD detector. Operating at nitrogen pressure of 75 psi for quantitation. […]
as §2
Hydrolysis of Polysorbate 20 with Sialate O-acetylesterase (SIAE) and Formulated Antibody. […] The influence of pH on the rate of PS20 degradation was determined by evaluating activity at 5.3, 6.0 and 8.0 in acetate, histidine and citrate buffer system.

[3] = PS20 incubated with LAL and SIAE (CAD profile); details: 0.2% PS20 with 10 ppm LAL and 10 ppm SIAE together, after 5 days
Procedure: To examine the effect of both SIAE and LAL on PS20, 10 ppm of LAL and 10 ppm of SIAE were incubated with a solution comprising 0.2% PS20. Polysorbate in formulated mAbs were detected and identified as shown in Example 1.

[4] = PS80 degradation by human PLBD2 and CHO PLBD2; details: PLBD2 200 μg/mL, 0.1% PS80, 45° C., 5 days; peaks eluting between 30 and 35 minutes
Procedure: (§3) Hydrolysis of Polysorbate 20 and PS80 with Putative Phospholipase B-like 2 (PLBD2) and Formulated Antibody. To evaluate the effect of PLBD2 on PS20 and PS80 degradation, 16 μL of 10 mM Histidine buffer pH 6.0 was mixed with 2 μL of 1% PS20 or 1% PS80, followed by adding 2 μL of […] PLBD2 and incubating the sample at 45° C. for 5 days. One aliquot (3 μL) of each sample was diluted twenty-five time by adding 72 μL 10 mM histidine, pH 6.0 and used for LC-CAD analysis.
(§4) Polysorbates degradation by recombinant human PLBD2 and in-house CHO PLBD2 was monitored as outlined in the Material and Methods section. Recombinant human PLBD2 and in-house CHO PLBD2 with concentration at 200 μg/mL were incubated with 0.1% of PS20 and PS80 for 5 days. […] By incubating PS20 with OriGene human PLBD2, a decrease in signal intensity occurred on POE-ester peaks eluting at between 27.5 and 38 minutes. The peaks eluted before 34 minutes were POE monoester containing short fatty acid chain, for example, POE sorbitan monolaurate, POE isosorbide monolaurate, POE sorbitan monomyristate and POE isosorbide monomyristate. […] Instead, because both PLBD2 proteins contain a high level of impurities, it is more likely that the difference in esterase activity originated from some unknown HCP impurities other than from PLBD2 itself.

[5] = PS20 degradation by human PLBD2 and CHO PLBD2; details: PLBD2 200 μg/mL, 0.1% PS20, 45° C., 5 days
Procedure: as §3, §4

PS80 degradation by LAL = details: LAL 10 ppm and 20 ppm, 5 days at 45° C.
Source text: LAL has an ability to hydrolyze primary and higher order esters.

Row | Molecule | PS80 degradation [1] | PS20 degradation ([2]; 0.1% PS20, SIAE 2.5 ppm, 45° C., 10 mM Histidine pH 6, 10-day incubation) | pH effect on PS20 degradation by SIAE ([2]; SIAE directly incubated with PS20 in buffers pH 8.0, 6.0, 5.3) | PS20 ester species degradation [3] | PS80 degradation [4] | PS20 degradation [5] | PS80 degradation (PS80 degradation by LAL)
1 | B1 | did not show any degradation | Significant PS20 degradation | maximum degradation at pH 6.0 | all ester species degraded | – | – | –
2 | B2 | – | – | – | – | significant degradation | Significant PS20 degradation | –
3 | B3 | – | – | – | all ester species degraded | – | – | significant degradation of monoesters only
